Tested on: MS2 coat protein
Test: apparent KD of MS2 coat protein; higher = weaker reporter binding
Conditions: Eterna round: R107
Method in brief: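 Normalised binding curves from single clusters were fitted, and the median fit for each design is given as apparent KD. The clusters held designed RNA switches transcribed on-chip from Illumina sequencing clusters. These were titrated with SNAP-549-labelled MS2 coat protein (twofold steps from 0.7 or 1.5 nM to 3 µM, 0.8–1.5 h to 10–20 min per step) in 100 mM Tris-HCl pH 7.5, 80 mM KCl, 4 mM MgCl2, without or with constant ligand.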

[1] = input ligand: theophylline 20 uM
[2] = input ligand: theophylline 2 mM
[3] = input ligand: tryptophan 2.4 mM

| Sequence | apparent KD of MS2 coat protein (input ligand: arginine 13.2 mM) | apparent KD of MS2 coat protein (input ligand: none) | apparent KD of MS2 coat protein [1] | apparent KD of MS2 coat protein [2] | apparent KD of MS2 coat protein [3] |
| --- | --- | --- | --- | --- | --- |
| GAGUAAACUACGGCCGCCACUCAAGGAGAUCAAUAGAUCAUCGACAUGAGGAUCACCCAUGUAAAGAGGACCGGGUAGAUCCUUA [Same State Typrtophan B GF1] | 97.8 nM | 214 nM | 98.9 nM | 362 nM | 100 nM |
| GAGUAGAGGACGGCCGCCACUAAACAUGAGGAUCACCCAUGUCGUGAUCCGUUACCUAGAGUAGAUAGGACCGGGUCAUAUAGUC [Exclusion Tryptophan B GF 16] | 20.8 nM | – | 41.5 nM | 24.5 nM | – |
| GAGUCCGCGGCGGCCGCCACUCGCGAUAUAACAUGAUAUCAGGACAUGAGGAUCACCCAUGUCACGAGGACCGGGCCGAUCCUCA [Same State Typptophan B GF 5] | 17 nM | – | 49.2 nM | 35.8 nM | – |
| GAUACGCAGUCGGCCGCCACUUGCUAAGGUGACAAACCAAAACAUGAGGAUCACCCAUGUCUGAUAAGGACCGGGACCACCAUGG [theeternabot_sameState_MS2_Trp_B_14] | 69.7 nM | – | 124 nM | 129 nM | – |
| GAUAUAUAUCGAAGGAGCGGCCCUUGAUCCUCAUGAGACAUGAGGAUCACCCAUGUCUCGGGCCAGGUAGGUCGCGAUAUAUAUC [Astros-omei-mod2] | 26.3 nM | 21.2 nM | 28.8 nM | 24.2 nM | 22.8 nM |
| GAUCGAAAUAACGCAUAGGAAAACUAUGCGCGAGGACCGGUACGGCCGCCACUCGUCCUCACAUGAGGAUCACCCAUGUACGAUC [#SwitchBubble #CuTurnoff] | 23.1 nM | – | 29.1 nM | 27.6 nM | – |
| GAUGAACUAUAUGAUACCAGACAACAUGAGGAUCACCCAUGUGUAAGUCGUCCUCUGCCUGUCCCUUGGCAGCGUAUAGUUUAUC [XTheo B #18] | 43.2 nM | – | 76.4 nM | – | 23.3 nM |
| GAUGAACUAUGUGAUACCAGACAACAUGAGGAUCACCCAUGUGCGCGUCGUCCUCUGCCUGUCCCUUGGCAGCGUAUAGUUUAUC [XTheo B #13] | 77.9 nM | – | 110 nM | – | 47.8 nM |
| GAUGAACUAUUCGAUACCAGACUACAUGAGGAUCACCCAUGUGUGUCAAUUUCUCAGUCAGUCCCUUGGCAGCGAAUAGUUUAUC [#26 Exclusion-TheophyllineB] | 53 nM | – | 51.7 nM | – | 26.3 nM |
| GAUGAACUAUUUGAUACCAGACUACAUGAGGAUCACCCAUGUGAGUUUAUACUUCAGUCAGUCCCUUGGCAGCAAAUAGUUUAUC [XTheo B #6] | 38.3 nM | – | 60.9 nM | – | 42.1 nM |
| GAUGAACUAUUUGAUACCAGACUACAUGAGGAUCACCCAUGUGUGUUUAUACUUCUGUCAGUCCCUUGGCAGCAAAUAGUUUAUC [XTheo B #4] | 47.3 nM | – | 95.2 nM | – | 40.4 nM |
| GAUGAUAUUGCAGAUACCAGACACAUGAGGAUCACCCAUGUCGCUGAGAUGCUGGAUCGUGUCCCUUGGCAGCUGCGAUAUCAUC [Brazil] | 38.7 nM | – | 106 nM | – | 49.6 nM |
| GCACAAGAUGGAAGGAGCGCUGGGAAAGGUCACAUGAGGAUCACCCAUGUUCUCCUUGCCGAGCAGGUAGGUCGCCAUCUUGUGC [SSAB NP+V+V2 #2] | 30.4 nM | 37.8 nM | 50 nM | 56.1 nM | 33.9 nM |
| GCACAAGAUGGAAGGAGCGCUGGUAACGGUCACAUGAGGAUCACCCAUGUGCUCCUUGCCGAGCAGGUAGGUCGCCAUCUUGUGC [SSAB NP+V+V2 #6 +-Same Structure] | 34.1 nM | 44.4 nM | 46.1 nM | 45.3 nM | 35.3 nM |
| GCACAAGAUGGAAGGAGCGCUGGUAGGUGACACAUGAGGAUCACCCAUGUGCUCCUUGCCGAGCAGGUAGGUCGCCAUCUUGUGC [SSAB NP+V+V2 #7] | 21.1 nM | 27.7 nM | 40.3 nM | 36.1 nM | 25.5 nM |
| GCACCAGGUACGGAUACCAGACGCUGCCGAUUGGGUGGACAUGAGGAUCACCCAUGUAAUGUCCCUUGGCAGCCGUACCUGGUGC [#17 Exclusion-TheophyllineB] | 13.5 nM | 13.8 nM | 38.8 nM | 200 nM | 17.8 nM |
| GCACCAGGUACGGAUACCAGCUGCCACAGUUACAUGAGGAUCACCCAUGUGAUAAAGUGUAGCCCUUGGCAGCUGUACCUGGUGC [SSThB NP+V+V2 #6 +-Same Structure] | 93.2 nM | – | 69.1 nM | – | 125 nM |

| Sequence | apparent KD of MS2 coat protein (input ligand: arginine 13.2 mM) | apparent KD of MS2 coat protein (input ligand: none) | apparent KD of MS2 coat protein [1] | apparent KD of MS2 coat protein [2] | apparent KD of MS2 coat protein [3] |
| --- | --- | --- | --- | --- | --- |
| GCACCAGGUACGGAUACCAGCUGCCACGGUUACAUGAGGAUCACCCAUGUGAUAAGGUGUAGCCCUUGGCAGCUGUACCUGGUGC [SSThB NP+V+V2 #7 +-Same Structure] | 96.9 nM | 142 nM | 500 nM | 411 nM | 258 nM |
| GCACCAGGUACGGAUACCAGCUGCCAGAGAUACAUGAGGAUCACCCAUGUGACCUGAUUUAGCCCUUGGCAGCUGUACCUGGUGC [SSThB NP+V+V2 #2 Same Structure] | 178 nM | – | 472 nM | – | 680 nM |
| GCACGACAUGAGGAUCACCCAUGUGCAGAUACCAGUAAUGUAUAUUACCCUUGGCAGCUGAGUAGAUCUGGAGGGCUAUAGGUAA [Same State Theophylline A GF10] | 11.5 nM | – | 18.7 nM | – | 14.1 nM |
| GCAUAGUAAAAUGAUACCAGAGUCAAAACAGACAUGAGGAUCACCCAUGUGCAUAUACAACUCCCUUGGCAGCAUUAAAACGGGA [theeternabot_sameState_MS2_Theo_B_28] | 14.2 nM | – | 18.7 nM | – | 18.2 nM |
| GCAUCCUAGUCGGCCGCCACUGGAUGUACCCAGUGCUGGUACAAACAUGAGGAUCACCCAUGUACCAGGACCGGGACUAGGAUGC [(Trp1)-(MT2)''-(T1)'-(MT2)'-(Ms2)-(Trp2)_Design3] | 23.6 nM | 12.7 nM | 16.4 nM | 12.3 nM | 9.93 nM |
| GCAUGUUGGUGGUAUCUGCGAAGGCGGAAUCGAGGACCGGUACGGCCGCCACUCGGCGACAUGAGGAUCACCCAUGUGGUUAGGA [Exclusion - Tryptophan A (Freestyle 8)] | 18.6 nM | 238 nM | 170 nM | 658 nM | 203 nM |
| GCCAGACAUGAGGAUCACCCAUGUAGCGAUACCAGCUCUGUUGUGAGCCCUUGGCAGCGCACUGGCAUCGCGGGUGAUCCUGCAU [(T)''-(Ms2)-(Theo)-(T)'-(M)'-(M)''_Design3] | 15.1 nM | – | 137 nM | – | 33.1 nM |
| GCCGCGGCCGCGAUACACAUGGGUAUGUAACGAGGACCGGUACGGCCGCCACUCGAGAUAAUGUACAUGAGGAUCACCCAUGUAC [Exclusion Tryp A GF12] | 10.3 nM | – | 15.1 nM | 12.8 nM | – |
| GCCGCGGCCGCGAUACACAUGGGUGUGUAACGAGGACCGGUACGGCCGCCACUCGAGAUGGUGUACAUGAGGAUCACCCAUGUAC [Exclusion Tryp A GF14] | 10.5 nM | 14.5 nM | 21.5 nM | 17.4 nM | 13.4 nM |
| GCGAUACGUACUGAUACCAGAGACAUGAGGAUCACCCAUGUCCCAUGAUCAUACCUCAGACUCCCUUGGCAGCAGGAUAAGUGAG [Exclusion Theophylline B GF2] | 11.3 nM | – | 15.1 nM | – | 12 nM |
| GCGUUGGUCGGAAGGAGCGACAUGAGGAUCACCCAUGUCUCCCGUUAUGGGAGUUCCUUAGGUCAGGUAGGUCGCCGACUGACGC [#1 Exclusion - Arginine B Attempt #20 (Inspired by Omei)] | 96.1 nM | 209 nM | 193 nM | 150 nM | 143 nM |
| GCUACAUGAGGAUCACCCAUGUAUGCGAGCCGAGGACCGGUACGGCCGCCACUCGCUUAACAUGAGGAUCACCCAUGUUGCUCGG [SSTA DOUBLE!!! :-D #17] | 38.9 nM | – | 77.8 nM | 55.1 nM | – |
| GCUAGGUCAUCGGCCGCCACUAACGAUGGCUCCGACAUGAGGAUCACCCAUGUGCCACAUGCGCAUAGGACCGGGAUGACCUAGC [SSTB NP+V+V2 #2] | 16.8 nM | – | 22.7 nM | 19.8 nM | – |
| GCUAGGUCUACGGCCGCCACUAGACGUGGGUUUAACAUGAGGAUCACCCAUGUGCUACAGGCGCAUAGGACCGGGUAGACCUAGC [SSTB NP+V+V2 #10 +-Same Structure] | 532 nM | 414 nM | 713 nM | 928 nM | 51.3 nM |
| GCUAGUGGCAGAAGGAGCGACAUUUUAAGUGGUCGAUACAUGAGGAUCACCCAUGUACUAUGUCAGGUAGGUCGCUGCCACUAGC [EAB NP+V+V2 #3 +-Same Structure] | 39.1 nM | 34.8 nM | 38.8 nM | 42.9 nM | 34 nM |
| GCUAGUGGCAGAAGGAGCGAGGCGACAUACGGGUACAUGAGGAUCACCCAUGUGGUGUGUCCUCAGGUAGGUCGCUGCCACUAGC [SSAB NP+V+V2 #12] | 134 nM | 74.7 nM | 152 nM | 145 nM | 521 nM |
